Molecular target: T1, KRAS G12V (same sequence in NRAS and HRAS G12V) peptide on HLA-A*11:01 (human)
T1 peptide: VVGAVGVGK
Test: stated without data

B1: TCR 11N6 (TCR, V domains shown)
Valpha: QQGEEDPQALSIQEGENATMNCSYKTSINNLQWYRQNSGRGLVHLILIRSNEREKHSGRLRVTLDTSKKSSSLLITASRAADTASYFCATDPMNTNAGKSTFGDGTTLTVKP
Vbeta: GVAQSPRYKIIEKRQSVAFWCNPISGHATLYWYQQILGQGPKLLIQFQNNGVVDDSQLPKDRFSAERLKGVDSTLKIQPAKLEDSAVYLCASSPYGGSVSYEQYFGPGTRLTVT
B1: recognises.

— patent publication US20250152717A1 (published 2025)
